Molecular target: T1, biotinylated human DLL3 protein expressed as a human IgG1 fusion protein (human, UniProt Q9NYJ7 27-492, limits assumed, biotinylated)
T1 sequence: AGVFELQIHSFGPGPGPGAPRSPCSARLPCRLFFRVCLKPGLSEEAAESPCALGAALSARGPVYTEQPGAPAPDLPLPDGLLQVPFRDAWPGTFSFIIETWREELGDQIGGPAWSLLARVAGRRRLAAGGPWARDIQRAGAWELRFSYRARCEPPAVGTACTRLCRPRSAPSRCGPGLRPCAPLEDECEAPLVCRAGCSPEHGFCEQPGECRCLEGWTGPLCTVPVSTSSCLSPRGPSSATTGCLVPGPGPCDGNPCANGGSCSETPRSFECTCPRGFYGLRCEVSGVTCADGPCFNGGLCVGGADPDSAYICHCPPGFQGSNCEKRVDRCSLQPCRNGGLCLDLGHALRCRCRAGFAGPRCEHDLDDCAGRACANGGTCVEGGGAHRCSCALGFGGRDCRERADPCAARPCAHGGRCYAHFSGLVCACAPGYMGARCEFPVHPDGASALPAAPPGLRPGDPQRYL
Test: Octet BLI, single 50 nM
Description: Using the conditioned medium with known concentrations of the anti-DLL3 trispecific proteins, the binding affinities of the anti-DLL3 trispecific proteins toward human DLL3 protein were measured using a method where biotinylated version of human DLL3 protein were expressed as a human IgG1 fusion protein, and the binding affinity measurement was carried out in an Octet instrument with streptavidin tips.

B1: 1E010 anti-DLL3 trispecific protein (other)
chain: EVQLVESGGGLVQPGGSLTLSCVASGSVSSINAMGWYRRAPGKQRELVAGISSDGSKVYIDSVKGRFTISRDNAKNSVYLQMNSLRAEDTAVYYCYYFRTVSGLSMRYWGQGTLVTVSS
notes: not shown: linker 1808, anti-albumin sdAb, linker 1808, anti-CD3 fragment, His6 1819
Kd: 5.7 nM

B2: 1E011 anti-DLL3 trispecific protein (other)
chain: EVQLVESGGGLVQPGGSLTLSCVASGNTSSINAMGWYRRAPGKQRELVAGISSDGSKVYYDSVKGRFTISRDNAKNSVYLQMNSLRAEDTAVYYCYYFRTVRGSSQRYWGQGTLVTVSS
notes: as for B1
Kd: 2.7 nM

B3: 1E012 anti-DLL3 trispecific protein (other)
chain: EVQLVESGGGLVQPGGSLTLSCVASGSTSSTNAMGWYRRAPGKQRELVAGISSDGSKVYVDSVKGRFTISRDNAKNSVYLQMNSLRAEDTAVYYCYYFRTVSGSSMVYWGQGTLVTVSS
notes: as for B1
Kd: 5.3 nM

B4: 1F01 anti-DLL3 trispecific protein (other)
chain: EVQLVESGGGLVQPGGSLTLSCVASGSTSSINAMGWYRRAPGKQRELVAGISSDGSKVYGDSVKGRFTISRDNAKNSVYLQMNSLRAEDTAVYYCYYFRTVSRSSMRYWGQGTLVTVSS
notes: as for B1
Kd: 9.4 nM

B5: 1F02 anti-DLL3 trispecific protein (other)
chain: EVQLVESGGGLVQPGGSLTLSCVASGSTSSINAMAWYRRAPGKQRELAAGISSDQSKVYADSAKGRFTISRDNAKNSVYLQMNSLRAEDTAVYYCYYFRTVSGSSMSYWGQGTLVTVSS
notes: as for B1
Kd: 4 nM

B6: 1F04 anti-DLL3 trispecific protein (other)
chain: EVQLVESGGGLVQPGGSLTLSCVASGGTSSINAMGWYRRAPGKQRELVAGISSDGSKVYSDSVKGRFTISRDNAKNSVYLQMNSLRAEDTAVYYCYYFRTVSGSSARYWGQGTLVTVSS
notes: as for B1
Kd: 10 nM

B7: 1F05 anti-DLL3 trispecific protein (other)
chain: EVQLVESGGGLVQPGGSLTLSCVASGSTRSINAMGWYRRAPGKQRELVAGISSDGSKVYADSVKGRFTISRDNAKNSVYLQMNSLRAEDTAVYYCYYFHTVSGSSMRYWGQGTLVTVSS
notes: as for B1
Kd: 5.8 nM

B8: 1F06 anti-DLL3 trispecific protein (other)
chain: EVQLVESGGGLVQPGGSLTLSCVASGTTSSINAMGWYRRAPGKQRELVAGISSDGSKVIADSVKGRFTISRDNAKNSVYLQMNSLRAEDTAVYYCYYFRTVLGSSMRYWGQGTLVTVSS
notes: as for B1
Kd: 8.9 nM

B9: 1F07 anti-DLL3 trispecific protein (other)
chain: EVQLVESGGGLVQPGGSLTLSCVASGSTSSINAMGWYRRAPGKQRELVAGISSDGSKVDADSVKGRFTISRDNAKNSVYLQMNSLRAEDTAVYYCYYFRTVSGSSMRYWGQGTLVTVSS
notes: as for B1
Kd: 13 nM

B10: 1F08 anti-DLL3 trispecific protein (other)
chain: EVQLVESGGGLVQPGGSLTLSCVASGSTSSINAMAWYRRAPGKQRELVAGISSDGSKVYKDSVKGRFTISRDNAKNSVYLQMNSLRAEDTAVYYCYYFRNVSGSSMRYWGQGTLVTVSS
notes: as for B1
Kd: 31 nM

B11: 1F09 anti-DLL3 trispecific protein (other)
chain: EVQLVESGGGLVQPGGSLTLSCVASGNTSSINAMGWYRRAPGKQRELVAGISSNGSKVYADSVKGRFTISRDNAKNSVYLQMNSLRAEDTAVYYCYYFRTVTGSSMRYWGQGTLVTVSS
notes: as for B1
Kd: 35 nM

B12: 1F010 anti-DLL3 trispecific protein (other)
chain: EVQLVESGGGLVQPGGSLTLSCVASGSTSRINAMGWYRRAPGKQRELVAGISSDGSKVYKDSVKGRFTISRDNAKNSVYLQMNSLRAEDTAVYYCYYFRTVSGSSMRYWGQGTLVTVSS
notes: as for B1
Kd: 6.3 nM

B13: 1F011 anti-DLL3 trispecific protein (other)
chain: EVQLVESGGGLVQPGGSLTLSCVASGSTSSINAIGWYRRAPGKQRELVAGISSDGSKVYADSVKGRFTISRDNAKNSVYLQMNSLRAEDTAVYYCYYFRTVKGSSMRYWGQGTLVTVSS
notes: as for B1
Kd: 5 nM

B14: 1F012 anti-DLL3 trispecific protein (other)
chain: EVQLVESGGGLVQPGGSLTLSCVASGLTSSINAMGWYRRAPGKQRELVAGISSDGSKVYQDSVKGRFTISRDNAKNSVYLQMNSLRAEDTAVYYCYYFRTNSGSSMRYWGQGTLVTVSS
notes: as for B1
Kd: 5.8 nM
